In US12043658B2, “Conjugate comprising an active MMP-9-binding peptide” (Daiichi Sankyo Company, Limited, priority 2017, dated 2024):
Each block holds one molecule with its values, some of them ahead of it.

Columns and labels:
[1] = target: T1, human MMP-9 enzyme active domain E402Q mutant (Homo sapiens, UniProt P14780, E402Q); experiment: Size exclusion chromatography binding to hMMP-9(cat)_E402Q_His6; conditions: 25 μM enzyme, 75 μM inhibitor
T1 construct: an enzyme active domain E402Q mutant (Phe107-Pro449, E402Q) and a His tag; made in house; host or cells: FreeStyle 293F
Method: (§1) With M91005 and M91011 prepared in (1-2), active hMMP-9(cat)_His6 prepared in (2-1-4), and hMMP-9(cat)_E402Q_His6 prepared in (11-3), the binding activity was evaluated by size exclusion chromatography. 25 μM active hMMP-9(cat)_His6 or hMMP-9(cat)_E402Q_His6 and 75 μM active MMP-9-binding peptide or hTIMP-1 (in-house preparation) were mixed, and reacted at 4° C. for 1 hour. After the reaction, 10 μl of the reaction solution was analyzed by size exclusion chromatography. The chromatographic conditions were as follows.
(§2) Detection: Absorbance (280 nm)
(§3) When only active hMMP-9(cat)_His6 was analyzed, the peak of active hMMP-9(cat)_His6 was detected at a retention time of 7.0 minutes (FIG. 53(A)). When a mixture reaction solution of active hMMP-9(cat)_His6 and hTIMP-1 or active MMP-9-binding peptides M91005 or M91011 was analyzed, the retention time of the peak of active hMMP-9(cat)_His6 was shifted to the high molecular weight side (FIG. 53(A)). […] When only human MMP-9(cat)_E402Q_His6 was analyzed, the peak of hMMP-9(cat)_E402Q_His6 was detected at a retention time of 7.1 minutes (FIG. 53(B)). When a mixed reaction solution of human MMP-9(cat)_E402Q_His6 and hTIMP-1 was analyzed, the retention time of the peak of hMMP-9(cat)_E402Q_His6 was shifted to the high molecular weight side (FIG. 53(B)). […] In contrast, when a mixture reaction solution of hMMP-9(cat)_E402Q_His6 and the active MMP-9-binding peptide M91005 or M91011 was analyzed, the retention time of the peak of the hMMP-9(cat)_E402Q_His6 was not changed (FIG. 53(B)). It should be noted that when only hTIMP-1 or the active MMP-9-binding peptides M91005, M91011 was analyzed, the peak of hTIMP-1 was detected at a retention time of 7.3 minutes, the peak of the active MMP-9-binding peptide M91005 was detected at a retention time of 8.2 minutes, and the peak of the active MMP-9-binding peptide M91011 was detected at a retention time of 8.1 minutes (FIG. 53(C)).

[2] = target: T2, wild-type active hMMP-9(cat) (Homo sapiens, UniProt P14780); experiment: Inhibition of wild-type active hMMP-9(cat), substrate peptide; assay type: biochemical; conditions: wild-type active hMMP-9(cat) 1 nM, substrate peptide 10 μM
T2 construct: and an enzyme active domain (Phe107-Pro449) was constructed; His tag (before the propeptide) (N, cleaved yes); made in house; host or cells: FreeStyle 293F
Method: (§4) The substrate peptide MOCAc-KPLGL-A2pr(Dnp)-AR-NH2 (SEQ ID NO: 30 (FIG. 46)) (PEPTIDE […], INC.; 3226-v) was dissolved in water to 1 mM, then diluted with an assay buffer (50 mM Tris-HCl, 200 mM NaCl, 2 mM CaCl2, pH7.5) and used at the final concentration of 10 μM. 50 μl each of the active hMMP-9(cat) diluted with the assay buffer or the active hMMP-9(cat)_XnnnY and the active MMP-9-binding peptide or sc-311438 (Santa Cruz Biotechnology, Inc.) were mixed, and reacted at 37° C. for 1 hour. Then, 100 μl of the substrate diluted with the assay buffer was added, and fluorescence signals (excitation 328 nm/emission 393 nm) were measured with Enspire (PerkinElmer, Inc.). The final concentrations of the active hMMP-9(cat) and the active hMMP-9(cat)_XnnnY were at 1 nM, and the final concentrations of the active MMP-9-binding peptide and sc-311438 were at 0.5 to 330 nM. For reactions and measurements, a ProteoSave™ SS96F black plate (Sumitomo Bakelite Co., Ltd.) was used.
(§5) The 50% inhibitory concentration (IC50) of each binding peptide was calculated using GraphPad Prism (version 5.0; GraphPad Software), by calculating the substrate peptide degradation rate of the active MMP-9-binding peptide at each concentration, and taking the degradation rate at an inhibitor concentration of 0 nM as 100% (FIGS. 54(A) and 54(B)). […]

[3] = target: T3, active hMMP-9(cat)_Y179A (Homo sapiens, UniProt P14780, Y179A); experiment: Inhibition of human MMP-9 mutant Y179A; assay type: biochemical
T3 construct: of the enzyme active domain (Phe107-Pro449) were constructed; His tag (before the propeptide) (N, cleaved yes); made in house; host or cells: FreeStyle 293F
Method: as §4, §5

[4] = target: T4, active hMMP-9(cat)_D185A (Homo sapiens, UniProt P14780, D185A); experiment: Inhibition of human MMP-9 mutant D185A; assay type: biochemical
T4 construct: of the enzyme active domain (Phe107-Pro449) were constructed; His tag (before the propeptide) (N, cleaved yes); made in house; host or cells: FreeStyle 293F
Method: as §4, §5

[5] = target: T5, active hMMP-9(cat)_F192A (Homo sapiens, UniProt P14780, F192A); experiment: Inhibition of human MMP-9 mutant F192A; assay type: biochemical
T5 construct: of the enzyme active domain (Phe107-Pro449) were constructed; His tag (before the propeptide) (N, cleaved yes); made in house; host or cells: FreeStyle 293F
Method: as §4, §5

[6] = target: T6, active hMMP-9(cat)_P193A (Homo sapiens, UniProt P14780, P193A); experiment: Inhibition of human MMP-9 mutant P193A; assay type: biochemical
T6 construct: of the enzyme active domain (Phe107-Pro449) were constructed; His tag (before the propeptide) (N, cleaved yes); made in house; host or cells: FreeStyle 293F
Method: as §4, §5

[7] = target: T7, active hMMP-9(cat)_Y393A (Homo sapiens, UniProt P14780, Y393A); experiment: Inhibition of human MMP-9 mutant Y393A; assay type: biochemical
T7 construct: of the enzyme active domain (Phe107-Pro449) were constructed; His tag (before the propeptide) (N, cleaved yes); made in house; host or cells: FreeStyle 293F
Method: as §4, §5

[8] = target: T8, active hMMP-9(cat)_L397A (Homo sapiens, UniProt P14780, L397A); experiment: Inhibition of human MMP-9 mutant L397A; assay type: biochemical
T8 construct: of the enzyme active domain (Phe107-Pro449) were constructed; His tag (before the propeptide) (N, cleaved yes); made in house; host or cells: FreeStyle 293F
Method: as §4, §5

[9] = target: T9, active hMMP-9(cat)_V398A (Homo sapiens, UniProt P14780, V398A); experiment: Inhibition of human MMP-9 mutant V398A; assay type: biochemical
T9 construct: of the enzyme active domain (Phe107-Pro449) were constructed; His tag (before the propeptide) (N, cleaved yes); made in house; host or cells: FreeStyle 293F
Method: as §4, §5

[10] = target: T10, active hMMP-9(cat)_M422I (Homo sapiens, UniProt P14780, M422I); experiment: Inhibition of human MMP-9 mutant M422I; assay type: biochemical
T10 construct: of the enzyme active domain (Phe107-Pro449) were constructed; His tag (before the propeptide) (N, cleaved yes); made in house; host or cells: FreeStyle 293F
Method: as §4, §5

[11] = target: T11, active hMMP-9(cat)_Y423A (Homo sapiens, UniProt P14780, Y423A); experiment: Inhibition of human MMP-9 mutant Y423A; assay type: biochemical
T11 construct: of the enzyme active domain (Phe107-Pro449) were constructed; His tag (ahead of the propeptide in the precursor) (N, cleaved yes); made in house; host or cells: FreeStyle 293F
Method: as §4, §5

[12] = target: T12, active hMMP-9(cat)_R424T (Homo sapiens, UniProt P14780, R424T); experiment: Inhibition of human MMP-9 mutant R424T; assay type: biochemical
T12 construct: of the enzyme active domain (Phe107-Pro449) were constructed; His tag (ahead of the propeptide in the precursor) (N, cleaved yes); made in house; host or cells: FreeStyle 293F
Method: as §4, §5

[13] = target: active human MMP-9 enzyme active domain (Homo sapiens, UniProt P14780); experiment: Size exclusion chromatography binding to active hMMP-9(cat)_His6; design: an enzyme active domain (Phe107-Pro449) and a His tag; made in house; host or cells: FreeStyle 293F; conditions: 25 μM enzyme, 75 μM inhibitor
Method: as §1, §2, §3

[14] = target: T13, active hMMP-9(cat)_F110A (Homo sapiens, UniProt P14780, F110A); experiment: Inhibition of human MMP-9 mutant F110A; assay type: biochemical
T13 construct: of the enzyme active domain (Phe107-Pro449) were constructed; His tag (before the propeptide) (N, cleaved yes); made in house; host or cells: FreeStyle 293F
Method: as §4, §5

[15] = target: T14, active hMMP-9(cat)_L187A (Homo sapiens, UniProt P14780, L187A); experiment: Inhibition of human MMP-9 mutant L187A; assay type: biochemical
T14 construct: of the enzyme active domain (Phe107-Pro449) were constructed; His tag (before the propeptide) (N, cleaved yes); made in house; host or cells: FreeStyle 293F
Method: as §4, §5

[16] = target: T15, active hMMP-9(cat)_Q199G (Homo sapiens, UniProt P14780, Q199G); experiment: Inhibition of human MMP-9 mutant Q199G; assay type: biochemical
T15 construct: of the enzyme active domain (Phe107-Pro449) were constructed; His tag (before the propeptide) (N, cleaved yes); made in house; host or cells: FreeStyle 293F
Method: as §4, §5

[17] = target: T16, active hMMP-9(cat)_Y420A (Homo sapiens, UniProt P14780, Y420A); experiment: Inhibition of human MMP-9 mutant Y420A; assay type: biochemical
T16 construct: of the enzyme active domain (Phe107-Pro449) were constructed; His tag (before the propeptide) (N, cleaved yes); made in house; host or cells: FreeStyle 293F
Method: as §4, §5

T9 sequence (P14780 107-449 V398A): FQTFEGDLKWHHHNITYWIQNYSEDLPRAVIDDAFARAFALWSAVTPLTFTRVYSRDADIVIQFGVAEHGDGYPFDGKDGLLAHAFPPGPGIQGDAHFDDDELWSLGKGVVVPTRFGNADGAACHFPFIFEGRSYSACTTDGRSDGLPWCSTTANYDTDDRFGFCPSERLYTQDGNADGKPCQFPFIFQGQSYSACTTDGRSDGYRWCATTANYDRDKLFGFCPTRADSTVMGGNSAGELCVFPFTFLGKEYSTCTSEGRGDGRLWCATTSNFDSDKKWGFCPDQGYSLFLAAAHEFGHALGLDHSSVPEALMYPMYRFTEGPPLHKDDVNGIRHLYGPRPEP
T5 sequence (P14780 107-449 F192A): as the sequence (P14780 107-449 V398A) above, with F86A, A292V counted along it
Chain of active human MMP-9 enzyme active domain (P14780 107-449): as the sequence (P14780 107-449 V398A) above, with A292V counted along it
T2 sequence (P14780 107-449): as the sequence (P14780 107-449 V398A) above, with A292V counted along it
T1 sequence (P14780 107-449 E402Q): as the sequence (P14780 107-449 V398A) above, with A292V, E296Q counted along it
T8 sequence (P14780 107-449 L397A): as the sequence (P14780 107-449 V398A) above, with L291A, A292V counted along it
T7 sequence (P14780 107-449 Y393A): as the sequence (P14780 107-449 V398A) above, with Y287A, A292V counted along it
T3 sequence (P14780 107-449 Y179A): as the sequence (P14780 107-449 V398A) above, with Y73A, A292V counted along it
T11 sequence (P14780 107-449 Y423A): as the sequence (P14780 107-449 V398A) above, with A292V, Y317A counted along it
T10 sequence (P14780 107-449 M422I): as the sequence (P14780 107-449 V398A) above, with A292V, M316I counted along it
T16 sequence (P14780 107-449 Y420A): as the sequence (P14780 107-449 V398A) above, with A292V, Y314A counted along it
T6 sequence (P14780 107-449 P193A): as the sequence (P14780 107-449 V398A) above, with P87A, A292V counted along it
T4 sequence (P14780 107-449 D185A): as the sequence (P14780 107-449 V398A) above, with D79A, A292V counted along it
T14 sequence (P14780 107-449 L187A): as the sequence (P14780 107-449 V398A) above, with L81A, A292V counted along it
T15 sequence (P14780 107-449 Q199G): as the sequence (P14780 107-449 V398A) above, with Q93G, A292V counted along it
T13 sequence (P14780 107-449 F110A): as the sequence (P14780 107-449 V398A) above, with F4A, A292V counted along it
T12 sequence (P14780 107-449 R424T): as the sequence (P14780 107-449 V398A) above, with A292V, R318T counted along it

- IC50 [2]: 17 ± 5 nM
- IC50 increase compared to wild type [3]: 4.9 times
- IC50 increase compared to wild type [4]: 19.0 times
- IC50 increase compared to wild type [5]: 5.0 times
- IC50 increase compared to wild type [6]: 6.5 times
- IC50 increase compared to wild type [7]: > 57.6 times
- IC50 increase compared to wild type [8]: 3.5 times
- IC50 increase compared to wild type [9]: 4.8 times
- IC50 increase compared to wild type [10]: 2.6 times
- IC50 increase compared to wild type [11]: > 20.0 times
- IC50 increase compared to wild type [12]: 2.7 times
B1: M91011: SPINK2 mutant active MMP-9-binding peptide, SEQ ID NO: 7 (FIG. 21) (protein)
chain: DPQFGLFSKYRTPNCMMYKYAQCSHKSQPVCGSDMSTYANECTLCMKIREGGHNIKIIRNGPC
modifications: binder
- binding to human MMP-9 enzyme active domain E402Q mutant (peak shift) [1]: do not bind to human MMP-9 enzyme active domain E402Q mutant
- binding to active human MMP-9 enzyme active domain (peak shift) [13]: bind to the active human MMP-9 enzyme active domain

- IC50 [2]: 17 ± 7 nM
- IC50 increase compared to wild type [14]: 4.0 times
- IC50 increase compared to wild type [3]: 3.2 times
- IC50 increase compared to wild type [15]: 6.7 times
- IC50 increase compared to wild type [5]: > 57.8 times
- IC50 increase compared to wild type [16]: 2.3 times
- IC50 increase compared to wild type [7]: 2.7 times
- IC50 increase compared to wild type [8]: 2.2 times
- IC50 increase compared to wild type [9]: 2.2 times
- IC50 increase compared to wild type [17]: 3.1 times
- IC50 increase compared to wild type [10]: 2.6 times
- IC50 increase compared to wild type [11]: 13.2 times
B2: M91005: SPINK2 mutant active MMP-9-binding peptide, SEQ ID NO: 5 (FIG. 19) (protein)
chain: DPQFGLFSKYRTPNCRKRGGPSCQMSYNPVCGSDMSTYANECTLCMKIREGGHNIKIIRNGPC
modifications: binder
- binding to human MMP-9 enzyme active domain E402Q mutant (peak shift) [1]: do not bind to human MMP-9 enzyme active domain E402Q mutant
- binding to active human MMP-9 enzyme active domain (peak shift) [13]: bind to the active human MMP-9 enzyme active domain
